Experimental data from US20180327752A1 (Stanford University, published 2018).

What was measured:
[1] = biological target: FGFR1; experiment: Flow cytometry surface staining of HAP1 WT cells with the isotype control, SSC against FITC
[2] = biological target: c-MET (Homo sapiens) (UniProt P08581); experiment: Flow cytometry surface staining of HAP1 WT cells with the isotype control, SSC against PE
[3] = biological target: T1, AAV2 particles (adeno-associated virus serotype 2 capsid) (adeno-associated virus serotype 2, UniProt P03135 1-735); experiment: cell-based or functional assay
[4] = biological target: T1, AAV2 particles (adeno-associated virus …); experiment: ELISA: plates coated with AAV2 virus-like particles, soluble AAVR (MBP-PKD1-5) detected with anti-MBP-HRP, A450
[5] = biological target: T1, AAV2 particles (adeno-associated virus …); experiment: SPR (BIAcore X), His-tagged soluble AAVR immobilised on CM5 chip, AAV-2 particles as analyte, Langmuir 1:1 fit
[6] = biological target: T1, AAV2 particles (adeno-associated virus …); experiment: SPR (BIAcore X): His-tagged soluble AAVR immobilised at 2 nM ligand concentration, AAV-2 particles as analyte, Langmuir 1:1 fit
[7] = biological target: T1, AAV2 particles (adeno-associated virus …); experiment: SPR (BIAcore X): His-tagged soluble AAVR immobilised at 4 nM ligand concentration, AAV-2 particles as analyte, Langmuir 1:1 fit

T1 sequence (P03135 whole entry): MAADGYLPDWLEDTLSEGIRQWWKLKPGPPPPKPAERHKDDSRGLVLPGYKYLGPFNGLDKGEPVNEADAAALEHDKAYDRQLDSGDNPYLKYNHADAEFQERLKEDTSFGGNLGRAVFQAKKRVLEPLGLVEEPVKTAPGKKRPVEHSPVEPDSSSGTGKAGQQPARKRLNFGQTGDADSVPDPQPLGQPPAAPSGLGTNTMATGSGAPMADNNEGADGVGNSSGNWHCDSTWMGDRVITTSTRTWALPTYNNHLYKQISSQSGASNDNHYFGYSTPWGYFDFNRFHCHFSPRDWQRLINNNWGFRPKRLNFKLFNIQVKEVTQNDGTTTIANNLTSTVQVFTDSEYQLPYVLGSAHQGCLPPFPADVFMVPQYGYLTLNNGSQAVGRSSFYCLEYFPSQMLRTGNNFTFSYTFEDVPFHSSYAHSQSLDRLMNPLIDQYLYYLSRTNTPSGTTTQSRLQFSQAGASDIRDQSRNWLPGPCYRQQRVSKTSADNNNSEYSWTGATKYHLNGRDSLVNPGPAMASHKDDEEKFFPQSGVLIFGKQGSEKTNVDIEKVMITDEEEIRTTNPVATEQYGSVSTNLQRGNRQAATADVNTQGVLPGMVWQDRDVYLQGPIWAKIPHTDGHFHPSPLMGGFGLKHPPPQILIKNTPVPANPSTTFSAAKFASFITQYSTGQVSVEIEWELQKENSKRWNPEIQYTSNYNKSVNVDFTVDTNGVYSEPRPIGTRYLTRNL

Q: isotype (FITC row) (antibody) was tested. Which % of cells in the positive gate [1] did it give?
A: 0.28%

Q: Which % of cells in the positive gate [2] does the source give for isotype (PE row) (antibody) here?
A: 0.68%

B1: soluble AAVR (E. coli-expressed recombinant fusion between maltose-binding protein and AAVR PKD domains 1-5) (receptor)
chain: VSAGESVQITLPKNEVQLNAYVLQEPPKGETYTYDWQLITHPRDYSGEMEGKHSQILKLSKLTPGLYEFKVIVEGQNAHGEGYVNVTVKPEPRKNRPPIAIVSPQFQEISLPTTSTVIDGSQSTDDDKIVQYHWEELKGPLREEKISEDTAILKLSKLVPGNYTFSLTVVDSDGATNSTTANLTVNKAVDYPPVANAGPNQVITLPQNSITLFGNQSTDDHGITSYEWSLSPSSKGKVVEMQGVRTPTLQLSAMQEGDYTYQLTVTDTIGQQATAQVTVIVQPENNKPPQADAGPDKELTLPVDSTTLDGSKSSDDQKIISYLWEKTQGPDGVQLENANSSVATVTGLQVGTYVFTLTVKDERNLQSQSSVNVIVKEEINKPPIAKITGNVVITLPTSTAELDGSKSSDDKGIVSYLWTRDEGSPAAGEVLNHSDHHPILFLSNLVEGTYTFHLKVTDAKGESDTDRTTVEVKPDPR
notes: Used in the ELISA on AAV2 VLPs and in the neutralization assay; also called rAAVR1-5; MBP-AAVR PKD 1-5
Q: With B1 as the molecule, how does the “IC50 (read off the curve)” value [3] read?
A: ~20 nM

Q: And the “EC50 (read off the curve)” value [4]?
A: ~100 nM

B2: His-tagged soluble AAVR (His-tagged MBP fusion with AAVR PKD domains 1-5) (receptor)
chain: B1 chain
notes: Construct immobilised on the CM5 chip for SPR; also called AAVR (SPR ligand); not shown: His tag
Q: What does the source list for B2?
A: Kd [5]: ~150 nM; Kd [6]: 140 nM; koff [6]: 0.0023 s⁻¹; kon [6]: 20000 M⁻¹ s⁻¹; Kd [7]: 150 nM; koff [7]: 0.0029 s⁻¹; kon [7]: 18000 M⁻¹ s⁻¹
